# Assay results: publication PMC3470408
# Test system: CC(C)=CCOP(=O)(O)OP(=O)(O)O
# Assay: purified protein
# Settings: pH 7.0; 37.0 °C
substance,measurement,value
Rv0562 (Mycobacterium tuberculosis H37Rv),Km,5 ± 2 µM
